Residue numbers refer to the chain shown, from its start. Blank lines part the entries; values can stand above or below the binder they belong to.
Tests used:
[1] = target: T1, human PTK7 on cells (tumor cells endogenously expressing PTK7); CHO-hPTK7, CHO-S-hPTK7 and 293T-hPTK7 … (human, UniProt Q13308 31-1070); assay: flow cytometry on H358 cells endogenously expressing PTK7
T1 construct: whole, on cells; The cell line of each value is named under assay; also called H1299; H358
T1 sequence (looked up): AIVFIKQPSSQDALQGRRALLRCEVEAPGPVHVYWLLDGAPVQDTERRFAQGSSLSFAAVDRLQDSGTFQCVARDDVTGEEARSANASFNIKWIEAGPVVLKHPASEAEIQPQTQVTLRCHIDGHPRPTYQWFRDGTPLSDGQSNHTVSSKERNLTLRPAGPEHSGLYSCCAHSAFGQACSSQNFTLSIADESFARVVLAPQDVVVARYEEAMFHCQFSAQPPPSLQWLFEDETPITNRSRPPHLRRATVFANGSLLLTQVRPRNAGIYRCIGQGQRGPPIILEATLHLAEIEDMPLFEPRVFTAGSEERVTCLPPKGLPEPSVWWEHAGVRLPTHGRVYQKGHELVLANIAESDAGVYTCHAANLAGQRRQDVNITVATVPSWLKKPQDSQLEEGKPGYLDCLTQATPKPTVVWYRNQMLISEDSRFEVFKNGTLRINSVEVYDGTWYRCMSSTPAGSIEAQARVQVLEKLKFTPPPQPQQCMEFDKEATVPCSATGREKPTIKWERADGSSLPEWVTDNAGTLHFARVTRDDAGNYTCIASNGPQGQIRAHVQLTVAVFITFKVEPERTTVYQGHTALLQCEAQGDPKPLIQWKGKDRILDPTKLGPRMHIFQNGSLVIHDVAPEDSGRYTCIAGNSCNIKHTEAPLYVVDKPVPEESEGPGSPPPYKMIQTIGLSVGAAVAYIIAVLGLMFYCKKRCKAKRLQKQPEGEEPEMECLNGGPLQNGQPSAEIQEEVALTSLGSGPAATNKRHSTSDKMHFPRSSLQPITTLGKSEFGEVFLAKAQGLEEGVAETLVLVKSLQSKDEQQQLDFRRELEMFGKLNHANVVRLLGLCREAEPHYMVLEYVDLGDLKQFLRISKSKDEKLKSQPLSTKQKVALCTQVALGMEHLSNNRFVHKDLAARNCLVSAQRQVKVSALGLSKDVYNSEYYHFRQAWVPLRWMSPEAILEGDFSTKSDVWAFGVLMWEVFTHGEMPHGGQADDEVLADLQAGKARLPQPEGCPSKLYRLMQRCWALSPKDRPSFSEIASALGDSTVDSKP

[2] = target: T2, human PTK7 protein (extracellular sequence of human PTK7 with C-terminal 6×His tag) (human, UniProt Q13308 31-704); assay: ELISA, coated human PTK7-His protein 1 µg/ml
T2 construct: extracellular domain; Expressed transiently in HEK293 cells; also called human PTK7-His; human PTK7-His protein
T2 sequence: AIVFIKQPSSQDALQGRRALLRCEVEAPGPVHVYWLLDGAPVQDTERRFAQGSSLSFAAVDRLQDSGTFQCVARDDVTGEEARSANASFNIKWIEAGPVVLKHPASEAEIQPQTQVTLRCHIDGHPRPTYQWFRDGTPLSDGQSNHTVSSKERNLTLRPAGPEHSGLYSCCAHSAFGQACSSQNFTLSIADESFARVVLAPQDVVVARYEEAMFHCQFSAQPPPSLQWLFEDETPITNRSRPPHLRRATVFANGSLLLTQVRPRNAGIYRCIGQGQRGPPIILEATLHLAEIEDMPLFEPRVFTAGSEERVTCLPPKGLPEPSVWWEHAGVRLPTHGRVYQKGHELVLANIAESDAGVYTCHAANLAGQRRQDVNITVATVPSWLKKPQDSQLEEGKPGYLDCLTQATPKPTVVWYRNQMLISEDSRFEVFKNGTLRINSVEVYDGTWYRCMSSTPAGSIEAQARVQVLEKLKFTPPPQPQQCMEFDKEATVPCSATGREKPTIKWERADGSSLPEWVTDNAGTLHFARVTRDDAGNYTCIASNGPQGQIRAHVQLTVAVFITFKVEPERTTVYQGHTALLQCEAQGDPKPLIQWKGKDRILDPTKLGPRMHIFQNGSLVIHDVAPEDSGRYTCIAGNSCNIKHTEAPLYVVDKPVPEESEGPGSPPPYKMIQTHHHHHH
Protocol: The original data was imported into software for nonlinear curve fitting, and the EC₅₀ of binding of each antibody to the human PTK7 was calculated, respectively.

[3] = target: T1, human PTK7 on cells (tumor cells …); assay: flow cytometry on H1299 cells
From the text: (§1) A flow cytometer (Beckman, Cytoflex) was used for detecting the affinity of the anti-human PTK7 chimeric and humanized antibodies with human non-small cell lung cancer cells H1299, human lung adenocarcinoma cells H1975, human breast cancer cells T47D, human ovarian cancer cells OVCAR-3 (all purchased from NANJING COBIOER BIOSCIENCES CO., LTD) and CHO-hPTK7 overexpression cells.
(§2) The adherent cells were digested by using a pancreatin (Gibco) solution; a proper amount of cells were counted and taken, washed twice by using 1×PBS, and re-suspended in a 1% BSA solution; and then the cells were transferred into a 96-well deep plate at a density of 50 μl/well; a candidate antibody was diluted by using 1% BSA, then 50 μl of diluted antibody was added into the deep plate containing the cells, and incubated for 40 min at 4° C.; the cells were washed twice by using PBS, then 50 μl of diluted secondary antibody was added into each well, uniformly mixed, and incubated for 30 min at 4° C.; and the cells were washed twice by using PBS, then re-suspended in 400 μl of PBS, and subjected to examination by flow cytometer.

[4] = target: T2, human PTK7 protein (extracellular …); assay: ELISA, coated human PTK7 protein 1 µg/ml
Protocol: (§3) Original data was imported into software for nonlinear curve fitting, and EC₅₀ of binding of each antibody to human PTK7 and monkey PTK7 was calculated, respectively. As shown in Table 1 and FIGS. 1A-1B, the screened antibodies could be bound to the human and monkey PTK7 proteins with affinity higher than that of the control antibody Hu24.

[5] = target: T3, monkey PTK7 protein (extracellular sequence of monkey PTK7 with C-terminal 6×His tag) (monkey); assay: ELISA, coated monkey PTK7 protein 1 µg/ml
T3 chain: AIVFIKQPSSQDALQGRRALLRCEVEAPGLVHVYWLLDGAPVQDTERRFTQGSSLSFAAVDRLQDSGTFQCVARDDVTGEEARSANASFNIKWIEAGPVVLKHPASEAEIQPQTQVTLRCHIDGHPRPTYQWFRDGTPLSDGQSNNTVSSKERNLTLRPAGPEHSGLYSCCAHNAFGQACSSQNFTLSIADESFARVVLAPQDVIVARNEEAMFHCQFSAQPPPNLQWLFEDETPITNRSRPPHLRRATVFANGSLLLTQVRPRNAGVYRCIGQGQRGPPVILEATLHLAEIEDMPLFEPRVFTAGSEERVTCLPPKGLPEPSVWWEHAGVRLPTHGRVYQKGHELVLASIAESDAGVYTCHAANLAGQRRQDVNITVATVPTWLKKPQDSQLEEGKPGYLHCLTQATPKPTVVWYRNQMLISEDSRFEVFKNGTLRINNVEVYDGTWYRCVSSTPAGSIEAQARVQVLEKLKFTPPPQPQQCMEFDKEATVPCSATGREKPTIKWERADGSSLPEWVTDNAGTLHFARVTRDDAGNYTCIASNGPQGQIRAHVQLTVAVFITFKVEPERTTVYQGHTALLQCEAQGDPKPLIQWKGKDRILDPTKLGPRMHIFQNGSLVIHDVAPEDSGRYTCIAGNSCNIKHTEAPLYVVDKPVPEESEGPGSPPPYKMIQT
Protocol: as §3

[6] = target: T1, human PTK7 on cells (tumor cells …); assay: flow cytometry on H1299 cells endogenously expressing PTK7
[7] = target: T1, human PTK7 on cells (tumor cells …); assay: flow cytometry on OVCAR-3 cells
From the text: as §1, §2

B1: 4E12 (anti-human PTK7 murine antibody) (antibody, V domains shown)
VH: QVQLQQSGAELMRPGVSVKISCKGSGYTFTDYAMHWVKQNHAKSLEWIGVISTYYGNVSYNQKFKGKATMTVDKSSSTAYMELARLTSEDSAIYYCARGFAYWGQGTLVTVSA
VL: DIVITQDELSNLVTSGESVSISCRSSKSLQKKDGKTYLNWFLQRPGQSPQLLIYLMSTRASGVSDRFSGSGSGTDFTLEISRVKAEDVGVYYCQQLVEYPFTFGSGTKLEIK
notes: Murine antibody purified from hybridoma supernatant on Protein A
EC50 [1]: 0.035 µg/mL

B2: 19C2 (anti-human PTK7 murine antibody) (antibody, V domains shown)
VH: QVTLKESGPGILKPSQTLSLTCSFSGFSLTTSGMGINWIRQPSGKGLEWLALIWWDDDKYYNPSLKNRLTVSKDPSRNQVFLTITSVDTTDSATYYCARSLITTAPSDYWGQGTSVTVSS
VL: DIVMTQSQKFMSTSVGDRVSITCKASQNVGTAITWYQQRPGQSPQLLIYSASNRYTGVPDRFTGSGSGTDFTLTISNLQSEDLADYFCLQYSDYPLTFGAGTNLELK
notes: as for B1
EC50 [1]: 0.0583 µg/mL

B3: 4B12 (anti-human PTK7 murine antibody) (antibody, V domains shown)
VH: QVTLKESGPGILKPAQTLSLTCSFSGFSLSTSGMGVGWIRQPSGKGLEWLAHIWWDDDKHYNPSLKSRLTISKDASRNQVFLRISSVDTADTATYYCVRSNYGYDWFAYWGQGTLVTVSA
VL: DIKMTQSPSSMYVSLGERVTITCKASQDINTYLGWFQQKPGKSPKTLIYRANRLVDGVPSRFSGSGSGQDYSLTISSLEYEDMEIYYCLQYDEFPLTFGAGTKLEIK
notes: as for B1
EC50 [1]: 0.0441 µg/mL

B4: 64A10-CH (anti-human PTK7 chimeric antibody of 64A10) (antibody, human IgG1, kappa, V domains shown)
VH: QVQLKESGPVLVAPSQSLSITCTVSGFSLTSYGVYWVRQPPGKGPEWLGVIWTSGNTNYNSALMSRLSISKDNSKSQVFLKMNSLQTDDTAMYYCVKHDGGNYVGVMNYWGQGTSVTVSS
VL: DIQMTQSPATLSVTPGDRVSLSCRASQSISDYLHWYQQKSQESPRLLIKYASQSISGIPSRFSGSGSGSDFTLSINSVEPEDVGVYYCQNGHSFPPTFGGGTKLEIKR
notes: The label '-CH' is not defined in words
EC50 [2]: 0.0258 µg/mL
EC50 [3]: 0.355 µg/mL

B5: 64A10 (anti-human PTK7 murine antibody) (antibody, V domains shown)
VH: B4 VH
VL: DIQMTQSPATLSVTPGDRVSLSCRASQSISDYLHWYQQKSQESPRLLIKYASQSISGIPSRFSGSGSGSDFTLSINSVEPEDVGVYYCQNGHSFPPTFGGGTKLEIK
notes: as for B1
EC50 [4]: 0.0132 µg/mL
EC50 [5]: 0.00765 µg/mL

B6: 57F4 (anti-human PTK7 murine antibody) (antibody, V domains shown)
VH: EVQLVESGGGLVKPGGSRKLSCAASGFTFSDYGMHWVRQAPEKGLEWVAYISSGSSALYYADTVKGRFTISRDNVKNTLFLQMTSLRSEDTAMYYCARRSYYSYFAYWGQGTLVTVSA
VL: QIVLTQSPALMAASPGEKVTITCRVSSSISSSTLHWYQQKSETSPKPWIYGTSNLASGVPVRFSGSGSGTSYSLTISSMEAEDAATYYCQQWSSFPFTFGSGTKLEIK
notes: as for B1
EC50 [4]: 0.0218 µg/mL
EC50 [6]: 0.0875 µg/mL
EC50 [5]: 0.0158 µg/mL

B9: 8H3 (anti-human PTK7 murine antibody) (antibody, V domains shown)
VH: EVKLVESGGGLVQPGGSLSLSCAASGFTFTDYYMSWVRQPPGKALEWLALIRNKANGYTTEYSASVKGRFTISRDNSQSILYLQMNALRAEDSATYYCARDSFEVYWGQGTLVTVSA
VL: DIVLTQSHKFMSTSVGDRVNITCKASQDVGTAVAWYQQKPGQSPKLLIYWASTRHTGVPDRFTGSGSGTDFTLTIRNVQSEDLADYFCQQFSSFPFTFGGGTKLEIK
notes: as for B1
EC50 [4]: 0.0113 µg/mL
EC50 [6]: 0.21 µg/mL
EC50 [5]: 0.0168 µg/mL

More lines, now with the values ahead:

EC50 [7]: 0.0397 µg/mL
B7: 64A10HZ05 (VH3+VL2) (anti-human PTK7 humanized antibody) (antibody, human IgG1, kappa, V domains shown)
VH: QVQLQESGPGLVKPSETLSLTCTVSGFSLTSYGVYWVRQPPGKGLEWLGVIWTSGNTNYNPSLKSRLTISKDNSKNQVSLKLSSVTAADTAVYYCVKHDGGNYVGVMNYWGQGTLVTVSS
VL: DIQMTQSPSSLSASVGDRVTITCRASQSISDYLHWYQQKPGKAPKLLIKYASQSISGVPSRFSGSGSGSDFTLTISSLQPEDFATYYCQNGHSFPPTFGGGTKVEIKR
notes: Human IgG1 heavy chain constant region and human Kappa light chain constant region

EC50 [4]: 0.0131 µg/mL
EC50 [6]: 0.245 µg/mL
EC50 [5]: 0.0187 µg/mL
B8: 101A6 (anti-human PTK7 murine antibody) (antibody, V domains shown)
VH: B9 VH with M34L, N76S, N86D, S102T, F103L, E104A, V105A, L112S, A117S
VL: B9 VL with L4M, N20S, I21F, T31S, A34I, R76S, F91Y, F94Y, F96L, G100A
notes: as for B1

EC50 [2]: 0.0316 µg/mL
EC50 [3]: 0.158 µg/mL
B10: 101A6-CH (anti-human PTK7 chimeric antibody of 101A6) (antibody, human IgG1, kappa, V domains shown)
VH: B9 VH with M34L, N76S, N86D, S102T, F103L, E104A, V105A, L112S, A117S
VL: DIVMTQSHKFMSTSVGDRVSFTCKASQDVGSAVIWYQQKPGQSPKLLIYWASTRHTGVPDRFTGSGSGTDFTLTISNVQSEDLADYFCQQYSSYPLTFGAGTKLEIKR
notes: as for B4

Reference: patent publication US20260250420A1 (SICHUAN KELUN BIOTECH BIOPHARMACEUTICAL, published 2026)
